Target: wild-type TrkA, baculovirus-expressed, activated (autophosphorylated) (UniProt P04629)

Substance: SHP-1
- dephosphorylation of 32P-autophosphorylated Trk in vitro: approximately 5-fold dephosphorylation

— patent publication US20020110800
